Reference: patent US5917018

Target: natural class I heavy chain molecules
Assay: binding to class I heavy chain, method not given

affinity against that of human β2-microglobulin: 5 times lower
Substance: recombinant murine β2-microglobulin
